B1: Mob-5-AP: rat Mob-5-alkaline phosphatase fusion protein, secreted, 90 KD (SEQ ID NO: 8) (protein)
chain: MQTSLRQQILPGLSLILLVLNQVPELQGQEFRFGPCQVTGVVLPELWEAFWTVKNTVKTQDELTSVRLLKPQVLQNVSDAESCYLAHSLLKFYLNTVFKNYHSKIVKFKVLKSFSTLANNFLVIMSKLQPSKDNAMLPISDSARRRFLLYHRTFKQLDIEVALAKAFGEVDILLAWMQNFYQLGSSGIIPVEEENPDFWNREAAEALGAAKKLQPAQTAAKNLIIFLGDGMGVSTVTAARILKGQKKDKLGPEIPLAMDRFPYVALSKTYNVDKHVPDSGATATAYLCGVKGNFQTIGLSAAARFNQCNTTRGNEVISVMNRAKKAGKSVGVVTTTRVQHASPAGTYAHTVNRNWYSDADVPASARQEGCQDIATQLISNMDIDVILGGGRKYMFPMGTPDPEYPDDYSQGGTRLDGKNLVQEWLAKRQGARYVWNRTELMQASLDPSVTHLMGLFEPGDMKYEIHRDSTLDPSLMEMTEAALRLLSRNPRGFFLFVEGGRIDHGHHESRAYRALTETIMFDDAIERAGQLTSEEDTLSLVTADHSHVFSFGGYPLRGSSIFGLAPGKARDRKAYTVLLYGNGPGYVLKDGARPDVTESESGSPEYRQQSAVPLDEETHAGEDVAVFARGPQAHLVHGVQEQTFIAHVMAFAACLEPYTACDLAPPAGTTDAAHPG

Key:
[1] = test system: mob-5; test: Differential display of Rat-1(ras) cells with or without PD98059; assay type: cell-based; conditions: 10 μM for 24 hours
Procedure: (B) Identification of mob-5 as a gene activated by oncogenic h-ras but inactivated by MAP kinase inhibitor, PD98059. Total cellular RNA from the normal Rat-1 cells and their oncogenic h-ras transformed derivatives Rat-1(ras) treated with or without 10 μM of PD98059 for 24 hours were compared by differential display. The same primer combination as used in (A) identified the mob-5 (arrow) again as a candidate gene activated by ras but inhibited by ras downstream MAP kinase inhibitor.
RNA purification, automated differential display screening and Northern blot analysis Total RNA from cells were purified using the RNApure reagent following the manufacture instruction (GenHunter Corp., Nashville, Tenn.). DNase I treatment of RNA prior to differential display was carried out using the MessageClean kit (GenHunter Corp., Nashville, Tenn.). Differential display PCR reactions were setup in 96-well PCR plates (Perkin-Elmer) by the Beckman Biomek 2000 automated liquid dispensing workstation using one-base anchored oligo-dT primers and rationally designed arbitrary 13mers (Liang et al., 1994b) from the RNAimage kits (GenHunter Corp., Nashville, Tenn.). The cDNAs were amplified in the presence of ^33P [(α-dATP] (New England Nuclear, Boston, Mass.) using Taq DNA polymerase (Qiagene) and separated on 6 % denaturing polyacrylamide gels (National Diagnostic, Atlanta, Ga.). […]

[2] = test system: putative Mob-5 receptor on the cell surface of h-ras transformed Rat-1 cells; test: Mob-5-AP receptor binding assay on Rat-1 cells before and after h-ras transformation; conditions: normal versus h-ras transformed Rat-1 cells, media at 0.7 unit/ml
Procedure: Both the normal and oncogenic h-ras transformed Rat-1 cells were analyzed for the ability to bind Mob-5-AP versus AP alone. The cell surface bound AP activity was measured to reveal a Mob-5 mediated-binding activity present only on the cell surface of the h-ras transformed cells. The result is representative of at least 5 independent experiments.
Identification of a putative receptor(s) of Mob-5 on the cell surface of h-ras transformed cells Another possible mechanism for Mob-5 function is that Mob-5 acts as an autocrine growth factor downstream of activated Ras. Ras transformed RIE cells can be used in a receptor binding assay. APtag technology (Flanagan and leder, 1990) was employed to create a Mob-5-alkaline phosphatase (AP) fusion protein, which can be used as an affinity agent for the receptor analysis. This strategy has been successfully used to identify and clone a number of important cell surface receptors, including those of leptin (Tartaglia et al., 1995) and semaphorin III (He and Tessier-Lavigne, 1997). Like Mob-5 itself, Mob-5-AP was secreted at high levels in 293T cells stably transfected with the recombinant plasmid. The secreted 90 KD Mob-5-AP can be readily detected from the culture media by either the alkaline phosphatase assay or direct Western blot analysis using anti-Mob-5 antibody (FIG. 4A). […]

[3] = test system: putative Mob-5 receptor on the cell surface of h-ras transformed RIE cells; test: AP fusion protein receptor binding assay on RIE cells before and after h-ras transformation; set-up: species or system rat; conditions: normal versus h-ras transformed RIE cells, media at 0.7 unit/ml
Procedure: (E) Mob-5-AP, but not hMob-5-AP, binds specifically to the cell surface of oncogenic h-ras transformed RIE cells. Both the normal and oncogenic h-ras transformed RIE cells were analyzed for the ability to bind Mob-5-AP versus AP alone. The same experiment was carried out with hMob-5-AP and AP alone. The cell surface bound AP activity was measured to reveal a species specific Mob-5 binding activity present only on the cell surface of the h-ras transformed RIE cells. The result is representative of at least 3 independent experiments.
As in Rat-1 cells, the putative Mob-5 receptor was also found to be differentially expressed between the normal and h-ras transformed RIE cells using Mob-5-AP fusion protein as a ligand (FIG. 4E, left panel). To determine whether hMob-5-AP could also differentially bind to the cell surface of h-ras transformed RIE cells, the receptor binding assay was conducted using hMob-5-AP in place of Mob-5-AP.
mob-5 expression is activated by both oncogenic h-ras and k-ras in intestinal epithelial cells Cancer arises from the epithelial cells rather than fibroblasts and K-ras mutations have been tightly linked with cancers of gastric intestinal origins (Kiaris and Spandidos, 1995). […] After the final 5 min extension at 72 ° C., the RT-PCR products were analyzed on a 1.5 % agarose gel. […]

Row | Molecule | mob-5 expression (differential display) [1] | cell surface binding (bound AP activity) versus AP alone [2] | cell surface binding (bound AP activity) versus AP alone [3]
1 | COc1cccc(-c2cc(=O)c3ccccc3o2)c1N [PD98059] | inactivated | – | –
2 | B1 | – | preferentially bound to the cell surface of the h-ras transformed Rat-1 cells, but not of the parental control | binds specifically only to the ras transformed RIE cells

Source: US20040019193A1, “Mob-5/hmob-5 as a cancer diagnostic marker” (priority 2002, published 2004)
